In the nanobody polyreactivity screen of Harvey et al. (2022):

Assay: yeast display, Sf9 membrane polyspecificity reagent, FACS + sequencing; frameworks hold sequencing errors
Summary of the method: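 Using colony PCR, genes from sorted yeast display clones were amplified, then sequenced on MiSeq at 2 × 250 and filtered by CDR length. The clones had been stained with 10% biotinylated, detergent-solubilized Sf9 membrane reagent for 1 hour at 4 °C and sorted by FACS into low and high (top ~1%) gates on anti-HA and streptavidin fluorescence. Polyreactivity labels come from the gate of origin.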

Sequence	polyreactivity (PSR sort gate)
QVQLVESRGGLVQAGGSLRLSCAASGRIFWVNAMGWYRQAPGKERELVAVISRGGSTTYADSVKGRFTISRDNAKNTVYLQMNSLKPEDTAVYYCAADAYRHAFLYYGYDYWGQGTQVTVSS	low polyreactivity
QVQLVESRGGLVQAGGSLRLSCAASGRIYNYYEMGWYRQAHGKESELVAAITWRGGTTYYADSVKGRFTISRDNAKNTVYLQMNSLKPEDTAVYYCATTPRSYRFPPPVGYGYWGQGTQVTVSS	high polyreactivity
QVQLVESRGGLVQAGGSLRLSCAASGRTLTAYAMGWYRQAPGKERELVDDISFGGGTTYYADSVKGRFTISSDNAKNTVYLQMNSLKPEDTAVYYCAAANYVDIWDFYWFDDYWGQGTQVTVSS	high polyreactivity
QVQLVESRGGLVQAGGSLRLSCAASGRTVRRYAMGWYRQAAGKARELVASISRGSSTNYADSVKGRFTSSRDNAKNTGYLQMNSLKPEHTAVYYCAALGWSARYRYDYWGQGTQVTVSS	high polyreactivity
QVQLVESRGGLVQAGGSLRLSCAASGSIFSYYPMGWYRQAPGKERELVAAISSRGGSTYYADSVKGRFTISRDNAKNTFYLQMNCLKPEDTAVYYCDDEWTSWFGVTYDYWGQGTQVTVSS	high polyreactivity
QVQLVESRGGLVQAGGSLRLSCAASGSNFTLYAMGWYRQAPGKERELGATITISGGGTYYADSVKGRFTISRDNAKNTVYLQMNSLKPEDTAVYYCAVKSIVRRKGYTYYRYDYWGQGTQVTVSS	high polyreactivity
QVQLVESRGGLVQAGGSLRLSCAASGSTFFHYAMGWYRQAPGKDRELVAAIDSNGGSTYYADSVKGRFTISRDNAKNTVYLPMNSLKPEDTAVYYCAADDLAEFEYDYWGQGTQVTVSS	low polyreactivity
QVQLVESRGGLVQAGGSLRLSCAASGSTFGWYAMGWYRQAPGKERELVASITSGGRTNYADSVKGRFTISRDNAKITVYLQMNSLKPEDTAVYYCAKRVYGSYSLYDYWGQGTQVNVSS	low polyreactivity
QVQLVESRGGLVQAGGSLRLSCAASGSTFKRYTMGWYRQAPGKESELVAAISTSSGSTYYADCVKGRFTISRDNAKNTVYLQMNSLKPDDSAVYYCAAVRHRQSYPKYNYWGQGTQVTVSS	high polyreactivity
QVQLVESRGGLVQAGGSLRLSCAASGTTINFYPMGWYRQAPGKERELVAAIRVSSGSTYYADSVKGRFTISRDNAKNNVYLQMNSLKPEDTAVYYCAAFLKDRSPRDGYDYWGQGSQVTVSS	high polyreactivity
QVQLVESRGGLVQAGGSLRLSCAASGYIINAYARGWYRQAPGKERELVAAISWSSDSTYYADSVKGRFTISRDIAKNTVYLQMNSLKPEVTAVYYCAAPYITPYGTYVFSSDYWGQGTQVTVSS	low polyreactivity
QVQLVESRGGLVQAGGSLRLSCAASGYILWRYAMGWYRQAPGKERELVASISSGVSTNYADSVKGRFTISRDNAKNTVYLQMYSLKPEDTAVYYCKTGRWLLGSMEYWGQGTEVTVSS	low polyreactivity
QVQLVESRGGLVQAGGSLRLSCAASGYTFYGYAMGWYRQAPGKERELVAAISGSGGSTYYADSVKGRFTISRDNAKNTVYLQMNSLKREDTAVYYCNKARYAIYRGDGYDYWGQGTQVTVSS	high polyreactivity
QVQLVESRGGLVQAGGSLRLSCAATGFTIYYYAMGWYRQAPGKERELVAAITGSGGSTYYADSVKGRFTISRDNAKNTVYLQMNSLKPEDTAVYYCARRYQVGWYYKYDYWGQGTQVTVSS	high polyreactivity
QVQLVESRGGLVQAGGSLRLSCADSGITFYVYTMGWNIKAPGKQRDLVASISGRGGSTYYAVSVKGRFTISRDNAKNTVYLQMNSLKPEDTAVYYCEAYRLRFWSMDYWGQGTQVTGSS	high polyreactivity
QVQLVESRGGLVQAGGSLRLSCPASGSIFPDNAMGWYRQAPGKERELDAAITRGGSTYYADSEKGRFTISRDNAKNTVYLQMNSLKPEDTAVYYCAVVRYYVSMDNWGQGTQVTVSS	high polyreactivity
QVQLVESRGGLVQAGGSLRLSCSASGRIFTTYAMGWYRQAPGKEREFVAAISRSGGSTYYADSVKGRFTISRDNAKNTVYLQMNSLKPEDTAVYYCAAVPTSNSLRSSFSYWGQGSQVTVSS	high polyreactivity
QVQLVESRGGLVQAGGSLSLSCAASGSTYNASAMGWYRQATGKERELVAAISSGGSTYYADSVKGRFTISRDNANNTVYLQMNSLKPEDTAVLYCAAVLTGHYYRFDYWGQGTQVNVSS	low polyreactivity
QVQLVESRGGLVQAGGTLRLSCAASGSTFAVNAMGWYRQAPGKERELVATITGSGGSTYYADSVKGRFTISRDNAKNTVYLQLNSLKPEDTAVYYCATDLVFDKRYWYDYWGQGTQVTVSS	low polyreactivity
QVQLVESRGGVVQAGGSLRLRCAASGRTFYRNVMGWSRQAPGKERELVAAITGDGGSTYYADSVKGRFTISRDNAKNTVYVQMNSQKAEVTAVYYCAASVYPQKRFFYWGHGTQVTVSS	high polyreactivity
QVQLVESRGVLVQAGGSLRLSCAASGSIFYFYAMGWYRQAPGKERELVAAISWSGGSTYYADSVKGRFTISRDTSKNTVYLQMHSLKPEDTPVYYCNAADYWYWENDYWGQGTQVTVSS	low polyreactivity
QVQLVESRGVLVQAGGSLRLSCAASGSTFTGYAMGWYRQAPGKERELVAGITGSGGSTYYADSVMGRFTISRDNAKITVYFQMNSLKPVDTAVYYCAAACWYHYVWLDYFWGQGTQVTVSS	low polyreactivity

Sequence	polyreactivity (PSR sort gate)
QVQLVESRGVLVQAGGSLRLSCAGSGSTILRYALGWYRQAPGKERELVAAINWSGGGTSYADSVKGRFTISRDNAKNTVYFQMNSLKPEDTAVYYCAAYFRYSNYWSEYWGQGTQVTVSS	high polyreactivity
QVQLVESRRGLVQAGGSLRLSCAASGRIFYRYALGWYRQAPGKEREFVAAISRSGGTTYYADSVKGRFTISRDNAKNTVYLQMNSLNPEDTAVYYCAAGGSFWYFSPRYGYWGQGTQVTVSS	high polyreactivity
QVQLVESRRGLVQARGSLRLSCAASGITFRWYAMGWYRQAPGKERELVAAITTGGSTKYADSVKGRFTISRDNAKNTVYLQMNSLKPEDTAVYYCAARGRYAGGYWGQGTQVTVSS	high polyreactivity
QVQLVESRVGLVQAGGSLRLSCAASGITFYGYAMGWYRQAPGKERELVAAITSGGSTYYADTVKGRFTISRDNAKNTVYFQMNSLKPEDTAVYYCAAYLRRAYVHSYERYYWGQGTQVTVSS	low polyreactivity
QVQLVESRWRFVQAGGSLRLSCAASGSIFADYAMGWYRQAPGKERELVAAITFSGGSTYYADSVKGRFTISRDNAKNTVYLQMNSLKPEDTAVYYCAARWRYRYYSWGQGTQVTVSS	high polyreactivity
QVQLVESSGGLVQAGGSLRLSCAASGRIFQAYAMGWYRQAPGKEREMVAAITGGGSTNYADSVKGRFTISRDNAKNTVYLQMNSLKPEDTAVYYCNAVTGTYGWGPQAREQEDYWGQGTQVTVSS	low polyreactivity
QVQLVESSGGLVQAGGSLSLICAASVLIFNFYSMGWYRQAPGKERELVDAISWNAGSTYYADSVKGRFTISRDNAKNTVYLQMNSLKPEDTAVYYCAVLPGRYDKTASHYDYWGQGTQVTVSS	low polyreactivity
QVQLVESVGCLVQAGGSLRLSCAASGFIFDYYAMGRYRHGPGKERELVAGISWSGGSTYYADSVKGRFTISSDNSKNTVYLQMNSLIPEDTAVYYCNAEDSVPFYLYYYWGQGSQVTVSS	low polyreactivity
QVQLVESVGCLVQAGGSLRLSCAATVSIFDRYAMGWNRQPPGKESELVAAISKSGGRTYYADSVKGRFTISRDNAKNTVYLQMNSLKPEDSAVYDCAADPLLGYLSHYYWGQGTQVTVSS	high polyreactivity
QVQLVESVGDLVQAGGSLRLSCAASGRNFPVYAMGWYRQAPGKERELVAAITFRSGSTYYADSVKGRFTISRDNAKNTVYLQMNSLKPEDTAVYYCAADFSVQYVGYSAIEGYWGQGTQVTVSS	high polyreactivity
QVQLVESVGGLDQAGGRLRLSCAASGFTIRPYVRRAYRQAPGTERELVAGISTGGSTYYADSVKGRFTISRDNAQNTVYLQMNRLKPEDTAVYDCAKRGKQYRKMNYWGQGTQVTVSS	high polyreactivity
QVQLVESVGGLDQAGGSLRLSCAASALIFPRYDMGSYRQAPGKERELDAAITSGGGTYNADSVKGRFTISRDNAKITVYLQMNSLKPEDTAVYYCAAGPVFGGGGYDYWGQGTQVTVSS	low polyreactivity
QVQLVESVGGLDQAGGSLRLSCAASGSIFVGYAMGWYRQAPGKERELVAAITRSGVSTYYADSVKGRFTISRDNAKNTVYLQMNSLKPEDTAVYYCAADPTYRYWRVPWYEYDYWGQGTQVTVSS	low polyreactivity
QVQLVESVGGLDQAGGSLRLSCAASGSTFGGYAMGWYRQAPGKERELVAAISSSGTSTYYADSVKGRFTISRDNAKNTVYLQMNSLKPEDNAVYYCATDFSFFSRFDYWGQGTQVTVSS	low polyreactivity
QVQLVESVGGLDQAGGSLRLSCAASGSTFKRYVMGWYRQAPGKERELVAAITWSGTRTYYADSVKGRFTLSRDNAKNTVYLQMNSLKPEDTAVYYCAARLYGGYDWGQGTQVTVSS	high polyreactivity
QVQLVESVGGLDQAGGSLRLSCPASGRTFGKYAMGWYRQSPGKERELVARISRRGGTTYYADSVKGRFTISRDNAKNTVYLQLNSLKPEDTAVYYCNARRRDYRHWYDYWGQGTQVTVSS	high polyreactivity
QVQLVESVGGLDQARGSLRLSCAASGFIYRYYPMGWYRQSPGKERELVASIDWSGGNTYYADSVKGRFTISRDKAKYTVYLQMNSLKPEDTAVYYCNRRGMDWGLGTQVTVSS	low polyreactivity
QVQLVESVGGLFQAGGSIRLSCAASGRTFFVYAMGWYRQAPGKERVLVAVISFTVDSTFYEDSVKGRFTISRDNAKNTVYLQMNSLKPEDTAVYYCAADVRRVFSKYSYYLYFDLDYWGQGTQVTVSS	low polyreactivity
QVQLVESVGGLGQAGGSLRLSCASSGFTFARYAMAWYIQAPGKERELVAAISGSGSTYYADSVKGRFTISRDNAKNSVYLQMNSLKTEDTAVYYCNAGNFGRFGFWGQGTQVTVSS	high polyreactivity
QVQLVESVGGLLQAGGSLRLSCADSGSTFTTNVMGWYRQAPGKERELVAAISKRGGSTFYADSVKGRFTISRDNAKNTVYRQMNSLKPEDTAVYYCKALRRGVRDPYGYWGQGTQVTVSS	high polyreactivity
QVQLVESVGGLLQAGGTLRLSCAASGITFLDYGRGWYRQATGKERELVATINSGGSTNYADSVKGRFTISRDNAKHTVYLLMNSLKAEDTAVYYCDADYGSDYPKGDYWGQGTQVTVTS	low polyreactivity
